Results: PMC12827253, “GADD45β inhibits RIPK3-mediated NF-κB activation by interfering with NEMO-RIPK1-RIPK3 interactions” (Cell Death Discovery, 2025)

Biological target: T1, human recombinant RIPK3 (human, UniProt Q9Y572 1-518)
T1 construct: RIPK3, human, bought recombinant protein; also called rhRIPK3; source: bought: Mybiosource cod; MBS1442585
Test: BLI; rhRIPK3 immobilised on AR2G sensor (10 μg/mL in 10 mM NaAc pH 4.5); rhGADD45β as analyte, 3.1–100 nM; 25 mM Tris pH 7.5, 100 mM NaCl, 0.02% Tween 20, 0.1% BSA; 25 °C; 1:1 Langmuir model; apparent
Conditions: both partners purified

T1 sequence (Q9Y572 whole entry): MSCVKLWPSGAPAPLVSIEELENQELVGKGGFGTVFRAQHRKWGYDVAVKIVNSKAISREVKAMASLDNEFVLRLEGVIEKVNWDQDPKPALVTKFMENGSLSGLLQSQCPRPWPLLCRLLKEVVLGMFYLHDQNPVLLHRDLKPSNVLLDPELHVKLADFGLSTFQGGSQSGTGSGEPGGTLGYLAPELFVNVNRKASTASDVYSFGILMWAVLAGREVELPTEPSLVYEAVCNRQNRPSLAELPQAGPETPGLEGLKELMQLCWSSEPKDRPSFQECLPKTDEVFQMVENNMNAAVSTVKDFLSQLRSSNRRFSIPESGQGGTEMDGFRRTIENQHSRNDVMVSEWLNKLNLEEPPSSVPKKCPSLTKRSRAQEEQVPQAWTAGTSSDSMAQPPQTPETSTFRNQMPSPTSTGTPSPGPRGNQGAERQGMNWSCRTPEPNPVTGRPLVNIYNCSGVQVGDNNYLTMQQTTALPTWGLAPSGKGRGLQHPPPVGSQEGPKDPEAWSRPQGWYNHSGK

- Kd: 1.73 nM
B1: recombinant human GADD45β (natural protein, UniProt O75293 1-160, looked up)
chain: MTLEELVACDNAAQKMQTVTAAVEELLVAAQRQDRLTVGVYESAKLMNVDPDSVVLCLLAIDEEEEDDIALQIHFTLIQSFCCDNDINIVRVSGMQRLAQLLGEPAETQGTTEARDLHCLLVTNPHTDAWKSHGLVEVASYCEESRGNNQWVPYISLQER
notes: GADD45β, human, recombinant; also called rhGADD45β; Growth Arrest and DNA Damage-inducible beta
